Consider one protein from PMC8303963, “Action of Multiple Rice β-Glucosidases on Abscisic Acid Glucose Ester” (International Journal of Molecular Sciences, 2021).

Substrate in this series: CC1=CC(=O)CC(C)(C)[C@@]1(O)/C=C/C(C)=C\C(=O)O[C@@H]1O[C@H](CO)[C@@H](O)[C@H](O)[C@H]1O
In words: glucose release by peroxidase/glucose oxidase assay, Michaelis-Menten fit. In kind it is biochemical, Oryza sativa. The note with it: 50 mM sodium acetate pH 5, 30 °C. An excerpt: glucose release by peroxidase/glucose oxidase assay, Michaelis-Menten fit on Os4BGlu12

As a reminder, the Km is the substrate concentration at which the rate is half of its maximum. For orientation: kcat means the maximal rate divided by the concentration of active sites. Broadly, the kcat/Km is the second-order rate constant that governs catalysis at low substrate concentration.

B1: Os4BGlu12 (Oryza sativa Japonica Group) (protein)
chain: AYNGAGEPPVSRRSFPKGFIFGTASSSYQYEGGAAEGGRGPSIWDTFTHQHPEKIADRSNGDVASDSYHLYKEDVRLMKDMGMDAYRFSISWTRILPNGSLRGGVNKEGIKYYNNLINELLSKGVQPFITLFHWDSPQALEDKYNGFLSPNIINDFKDYAEICFKEFGDRVKNWITFNEPWTFCSNGYATGLFAPGRCSPWEKGNCSVGDSGREPYTACHHQLLAHAETVRLYKAKYQALQKGKIGITLVSHWFVPFSRSKSNDDAAKRAIDFMFGWFMDPLIRGDYPLSMRGLVGNRLPQFTKEQSKLVKGAFDFIGLNYYTANYADNLPPSNGLNNSYTTDSRANLTGVRNGIPIGPQAASPWLYVYPQGFRDLLLYVKENYGNPTVYITENGVDEFNNKTLPLQEALKDDARIEYYHKHLLSLLSAIRDGANVKGYFAWSLLDNFEWSNGYTVRFGINFVDYNDGRKRYPKNSAHWFKKFLLK
notes: recombinant from E. coli, IMAC purified; N-terminal thioredoxin and His6 tags cut off with enterokinase
With B1, the Km is on record as 10.9 ± 0.9 mM, the kcat came to 7.5 ± 0.0002 s⁻¹ and the kcat/Km stood at 689 M⁻¹ s⁻¹.
